Series [1] addresses T1, BpsA (Streptomyces lavendulae, UniProt Q1MWN4). The series can be described thus: BpsA-mediated synthesis of indigoidine-related pigments from glutamine analogues. The series is classed as biochemical. The conditions noted are these: 4 mM substrate, 1.66 μM BpsA, 25° C., 72 hours. Here is the method: For these experiments, BpsA activation was carried out as noted in Example 1. Pre-activated BpsA was incubated at 25° C. for 72 hours in reaction buffer amended with 4 mM of either L-glutamine, L-glycine-L-glutamine (glycyl glutamine), L-alanine-L-glutamine (alanyl glutamine), N-trifluoracetyl-L-glutamine, or no substrate as a control. Pre-activated and buffered BpsA at a final concentration of 1.66 μM was added to a reaction buffer containing 4 mM of each L-glutamine derivative in a final reaction volume of 1000 μL. This was then incubated al 25° C. for 72 hours. Each reaction tube was centrifuged and the supernatant removed. The indigoidine derivatives were then resuspended in 100 μL of 99.9% DMSO to solubilise the precipitated pigment.
The structures of each substrate and the predicted structure of the cyclised indigoidine-like product potentially produced in each reaction are depicted in FIGS. […]. […] The relative absorbance levels of each reaction at the end of the 72 hour incubation period are illustrated in FIG. 8E.

Series [2] deals with T1, BpsA. The experiment in a line: Activation of apo-BpsA to holo-BpsA by PPTase, read out as indigoidine synthesis (A590). It is filed as biochemical. The following applies: in vitro, purified His6-tagged PPTase. Here is the method: Apo-BpsA was converted to holo-BpsA in vitro, post-purification, as follows. Purified BpsA and Sfp were obtained by standard Ni/NTA chromatography following their expression as His6-tagged recombinant polypeptides. The bpsA and sfp genes were cloned into and expressed from plasmid pET28a+ in E. coli BL21 (DE3) cells, as described for BpsA and other PPTases by Owell et al (2011), with the modification that BpsA expression and purification was performed in an entD gene-deleted strain of E.coli BL21(DE3). This was done to avoid any activation of BpsA by endogenous EntD PPTase prior to BpsA purification.
Reagents were added to a 15 ml tube. This was vortexed for two seconds and transferred to a 30° C. shaking incubator (200 rpm) for 20 minutes to enable 4′-PP attachment to occur. A negative control was set up in the same manner, omitting Sfp and adding 88.16 μL of ddH2O instead of 84.48 μL of ddH2O.
Indigoidine synthesis reactions were performed in triplicate in a 96 well plate to assess whether activated BpsA was generated. For these reactions, 50 μL of 50 mM Tris-HCl, 10 mM MgCl2 in ddH2O was added to each of six wells. […] The 96 well plate was shaken at 1000 rpm and the A590 values (absorbance at 590 nm) were recorded for each well every twenty seconds for 60 minutes. […]

Series [3] is described as follows: Stability of BpsA over time on storage. It is filed as physicochemical. The following applies: 24 weeks. The protocol: To monitor stability of Bps A over time after storage at these conditions, two BpsA samples were stored, one at 25° C. and one at 4° C. The two samples were then compared to recently purified BpsA. The BpsA stored at 4° C. retained 96% activity and the BpsA stored at 25° C. retained 15% activity after 24 weeks compared to the recently purified BpsA.

Series [4] is described as follows: BpsA functionality (indigoidine synthesis from L-glutamine) in the presence of DMSO. The series is classed as biochemical. The protocol: In these experiments, samples of 500 μM L-glutamine were prepared in ddH2O amended with DMSO to a final DMSO concentration (v/v) of either 0%, 10%, 20%, 30% or 35%. A master mix with final reagent concentrations as indicated in Table 5 was prepared and dispensed into 18 wells of a fresh 96 well plate at a volume of 20 μL per well.
To test whether full L-glutamine conversion had been achieved in the presence of DMSO, 180 μL of DMSO heated to 50° C. was then added to each well to completely solubilise the indigoidine. The 96 well plate was then incubated at room temperature with shaking at 2500 rpm for 10 minutes. Following this, a single A590 reading was taken and the average of the triplicate values were graphed (FIG. 5B).

Peptide text beside a SMILES is read from it.

Turning to `NC(=O)CC[C@H](NC(=O)C(F)(F)F)C(=O)O` [N-trifluoroacetyl-L-glutamine], the “Pigment formation by pre-activated BpsA from the substrate” value at BpsA [1] is recorded as “used to produce indigoidine-like pigments”. `C[C@H](N)C(=O)N[C@@H](CCC(N)=O)C(=O)O` [alanyl glutamine, L-alanine-L-glutamine] (H-Ala-Gln-OH): on BpsA [1], the “Pigment formation by pre-activated BpsA from the substrate” value is on record as “used to produce indigoidine-like pigments”. The same measure, in the same setting: the same measure for `NCC(=O)N[C@@H](CCC(N)=O)C(=O)O` [glycyl-glutamine, L-glycine-L-glutamine] (H-Gly-Gln-OH): “used to produce indigoidine-like pigments”.

B1: PptT: PPTase from Mycobacterium tuberculosis (protein)
chain: MTVGTLVASVLPATVFEDLAYAELYSDPPGLTPLPEEAPLIARSVAKRRNEFITVRHCARIALDQLGVPPAPILKGDKGEPCWPDGMVGSLTHCAGYRGAVVGRRDAVRSVGIDAEPHDVLPNGVLDAISLPAERADMPRTMPAALHWDRILFCAKEATYKAWFPLTKRWLGFEDAHITFETDSTGWTGRFVSRILIDGSTLSGPPLTTLRGRWSVERGLVLTAIVL
modifications: left off: small tags and cut ends
notes: PPTase from Mycobacterium tuberculosis
Consider B1, for which the “Ability of PPTase to activate BpsA” value in the series with BpsA [2] is “similarly able to activate BpsA”.

B2: Sfp: PPTase from Bacillus subtilis (protein)
chain: MKIYGIYMDRPLSQEENERFMSFISPEKREKCRRFYHKEDAHRTLLGDVLVRSVISRQYQLDKSDIRFSTQEYGKPCIPDLPDAHFNISHSGRWVICAFDSQPIGIDIEKTKPISLEIAKRFFSKTEYSDLLAKDKDEQTDYFYHLWSMKESFIKQEGKGLSLPLDSFSVRLHQDGQVSIELPDSHSPCYIKTYEVDPGYKMAVCAAHPDFPEDITMVSYEELL
modifications: left off: small tags and cut ends
notes: PPTase from Bacillus subtilis
For the molecule B2, the “Ability of PPTase to activate BpsA” value in the series with BpsA [2] is “effective means of pre-activating BpsA”.

B3: BpsA: single module non-ribosomal peptide synthetase from Streptomyces lavendulae, SEQ ID NO:2 (protein, listed as Streptomyces lavendulae)
chain: MTLQETSVLEPTLQGTTTLPGLLAQRVAEHPEAIAVAYRDDKLTFRELASRSAALADYLEHLGVSADDCVGLFVEPSIDLMVGAWGILNAGAAYLPLSPEYPEDRLRYMIENSETKIILAQQRLVSRLRELAPKDVTIVTLRESEAFVRPEGTEAPAARSARPDTLAYVIYTSGSTGKPKGVMIEHRSIVNQLGWLRETYAIDRSKVILQKTPMSFDAAQWEILSPANGATVVMGAPGVYADPEGLIETIVKHNVTTLQCVPTLLQGLIDTEKFPECVSLQQIFSGGEALSRLLAIQTTQEMPGRALINVYGPTETTINSSSFPVDPADLDEGPQSISIGSPVHGTTYHILDKETLKPVGVGEIGELYIGGIQLARGYLHRDDLTAERFLEIELEEGAEPVRLYKTGDLGQWNNDGTVQFAGRADNQVKLRGYRVELDEISLAIENHDWVRNAAVIVKNDGRTGFQNLIACIELSEKEAALMDQGNHGSHHASKKSKLQVKAQLSNPGLRDDAELAARPAFDLEGAEPTPEQRARVFARKTYRFYEGGAVTQADLLGLLGATVTAGYSRKAADLAPAELGQILRWFGQYISEERLLPKYGYASPGALYATQMYFELEGVGGLKPGYYYYQPVRHQLVLISEREATGKATAQIHFIGKKSGIEPVYKNNILEVLEIETGHMVGLFEQILPAYGLDIHDRAYEPAVKDLLDVADEDYYLGTFELVPHAGARDDQAEVYVQTHGGKVAGLPEGQYRYENGELTRFSDDIVLKKHVIAINQSVYQAASFGISVYSRAEEEWLKYITLGKKLQHLMMNGLNLGFMSSGYSSKTGNPLPASRRMDAVLGANGVDSAPMYFFVGGRISDEQIGHEGMREDSVHMRGPAELIRDDLVSFLPDYMIPNRVVVFDRLPLSANGKIDVKALAASDQVNAELVERPFVAPRTETEKEIAAVWEKALRRENASVQDDFFESGGNSLIAVGLVRELNARLGVSLPLQSVLESPTIEKLARRLEREVAQESSRFVRLHAETGKARPVICWPGLGGYPMNLRSLAGEIGLGRSFYGVQSYGINEGETPYETITEMAKKDIEALKEIQPAGPYTLWGYSFGARVAFETAYQLEQAGEKVDNLFLIAPGSPKVRAENGKVWGREASFANRGYTTILFSVFTGTISGPDLDRCLETVTDEASFAEFISELKGIDVDLARRIISVVGQTYEFEYSFHELAERTLQAPISIFKAVGDDYSFLENSSGYSAEPPTVIDLDADHYSLLREDIGELVKHIRYLLGE
As for B3, the “Activity retained compared to recently purified BpsA” value worked out at 96% in series [3] (stored at 4° C.) and 15% in series [3] (stored at 25° C.). In addition, the “BpsA activity in the presence of DMSO” value in series [4] (0-35% DMSO v/v, end-point A590 after full solubilisation) is on record as “impaired at all concentrations of DMSO”. The “DMSO concentration up to which BpsA retains partial functionality” value in series [4] (500 μM L-glutamine, DMSO v/v) is recorded as “up to 35%”.

The record behind these values is patent publication US10725049B2, “Methods of detecting and measuring glutamine and analogues thereof, and methods related thereto” (Victoria Link Limited, priority 2013, dated 2020).
